{
  "source": "paper doi:10.1101/152272",
  "about": "“t-Darpp is an elongated monomer that binds to calcium and is phosphorylated by cyclin-dependent kinases 1 and 5” (bioRxiv, 2017)",
  "proteins": {"B1": {"name": "Darpp-32 (natural protein, UniProt Q9UD71-1 1-204, looked up)", "chain": "MDPKDRKKIQFSVPAPPSQLDPRQVEMIRRRRPTPAMLFRLSEHSSPEEEASPHQRASGEGHHLKSKRPNPCAYTPPSLKAVQRIAESHLQSISNLNENQASEEEDELGELRELGYPREEDEEEEEDDEEEEEEEDSQAEVLKVIRQSAGQKTTCGQGLEGPWERPPPLDESERDGGSEDQVEDPALSEPGEEPQRPSPSEPGT", "notes": "Darpp-32, the longer isoform encoded by PPP1R1B, with 36 more residues at the N-terminus than t-Darpp; The printed UniProt entry is the human protein; The construct is probably the whole isoform, because the tail is said to be added to the C-terminus of Darpp-32; also called recombinant Darpp-32; longer isoform of t-Darpp; source: E. coli BL21 DE3, purified (Ni-NTA)"}},
  "biological_target": "the molecule itself",
  "assay": "cross-linking; glutaraldehyde 0.1% or 1% (v/v), 30 min at 25°C, then SDS-PAGE (10% gel); each protein alone and an equimolar mixture of t-Darpp and Darpp-32",
  "data": [
    {"protein": "B1", "values": [
      {"measurement": "stoichiometry N", "result": 2}
    ]}
  ]
}
